{"source": "paper PMC9667302", "biological_target": "Bluetongue virus (BTV-1) membrane penetration protein VP5 (bluetongue virus (BTV-1))", "assay": "cryo-EM structure", "data": [{"substance": "Bluetongue virus (BTV-1) membrane penetration protein VP5 (natural protein)", "values": [{"measurement": "stoichiometry N", "value": 3}]}]}
